To fix the notation:
B1: BCY17224 (peptide)
peptide: Ac-CY[Cba]PDYLC[dA]DEYCK(Pent4ynoyl)-NH2
modifications: linker 1-8-13 via TATA
SMILES: C#CCCC(=O)NCCCC[C@H](NC(=O)[C@@H]1CSCCC(=O)N2CN3CN(C2)C(=O)CCSC[C@H](NC(=O)[C@H](CC(C)C)NC(=O)[C@H](Cc2ccc(O)cc2)NC(=O)[C@H](CC(=O)O)NC(=O)[C@@H]2CCCN2C(=O)[C@H](CC2CCC2)NC(=O)[C@H](Cc2ccc(O)cc2)NC(=O)[C@@H](NC(C)=O)CSCCC3=O)C(=O)N[C@H](C)C(=O)N[C@@H](CC(=O)O)C(=O)N[C@@H](CCC(=O)O)C(=O)N[C@@H](Cc2ccc(O)cc2)C(=O)N1)C(N)=O
notes: scaffold TATA
B2: BCY19699 (peptide)
peptide: [GABA]CNLQAPCMLTGKVCA-NH2
modifications: linker 2-8-15 via TATA
notes: scaffold TATA
B3: BCY19733 (peptide)
peptide: ACDLTTHNCQWG[Nva(3-Et)]CA-NH2
modifications: linker 2-9-14 via TATA; N-terminus assumed
SMILES: CCC(CC)[C@@H]1NC(=O)CNC(=O)[C@H](Cc2c[nH]c3ccccc23)NC(=O)[C@H](CCC(N)=O)NC(=O)[C@@H]2CSCCC(=O)N3CN(CN(C3)C(=O)CCSC[C@@H](C(=O)N[C@@H](C)C(N)=O)NC1=O)C(=O)CCSC[C@H](NC(=O)[C@H](C)N)C(=O)N[C@@H](CC(=O)O)C(=O)N[C@@H](CC(C)C)C(=O)N[C@@H]([C@@H](C)O)C(=O)N[C@@H]([C@@H](C)O)C(=O)N[C@@H](Cc1c[nH]cn1)C(=O)N[C@@H](CC(N)=O)C(=O)N2
notes: scaffold TATA
B4: BCY19701 (peptide)
peptide: ACNLQA[Pip]CMLTGKVCA-NH2
modifications: linker 2-8-15 via TATA; N-terminus assumed
SMILES: CSCC[C@@H]1NC(=O)[C@@H]2CSCCC(=O)N3CN(CN(C3)C(=O)CCSC[C@@H](C(=O)N[C@@H](C)C(N)=O)NC(=O)[C@H](C(C)C)NC(=O)[C@H](CCCCN)NC(=O)CNC(=O)[C@H]([C@@H](C)O)NC(=O)[C@H](CC(C)C)NC1=O)C(=O)CCSC[C@H](NC(=O)[C@H](C)N)C(=O)N[C@@H](CC(N)=O)C(=O)N[C@@H](CC(C)C)C(=O)N[C@@H](CCC(N)=O)C(=O)N[C@@H](C)C(=O)N1CCCC[C@H]1C(=O)N2
notes: scaffold TATA
B5: BCY19717 (peptide)
peptide: ACDLTTHNCQWGIC[Aib]-NH2
modifications: linker 2-9-14 via TATA
notes: scaffold TATA
B6: BCY19722 (peptide)
peptide: ACDLTTHNCQ[Trp(6-Me)]GICA-NH2
modifications: linker 2-9-14 via TATA; N-terminus assumed
SMILES: CC[C@H](C)[C@@H]1NC(=O)CNC(=O)[C@H](Cc2c[nH]c3cc(C)ccc23)NC(=O)[C@H](CCC(N)=O)NC(=O)[C@@H]2CSCCC(=O)N3CN(CN(C3)C(=O)CCSC[C@@H](C(=O)N[C@@H](C)C(N)=O)NC1=O)C(=O)CCSC[C@H](NC(=O)[C@H](C)N)C(=O)N[C@@H](CC(=O)O)C(=O)N[C@@H](CC(C)C)C(=O)N[C@@H]([C@@H](C)O)C(=O)N[C@@H]([C@@H](C)O)C(=O)N[C@@H](Cc1c[nH]cn1)C(=O)N[C@@H](CC(N)=O)C(=O)N2
notes: scaffold TATA
B7: BCY19721 (peptide)
peptide: ACDLTTHNCQ[Trp(2-Me)]GICA-NH2
modifications: linker 2-9-14 via TATA
notes: scaffold TATA
B8: BCY19706 (peptide)
peptide: ACNLQAPCMLTGK[aIle]CA-NH2
modifications: linker 2-8-15 via TATA; N-terminus assumed
SMILES: CC[C@@H](C)[C@@H]1NC(=O)[C@H](CCCCN)NC(=O)CNC(=O)[C@H]([C@@H](C)O)NC(=O)[C@H](CC(C)C)NC(=O)[C@H](CCSC)NC(=O)[C@@H]2CSCCC(=O)N3CN(CN(C3)C(=O)CCSC[C@@H](C(=O)N[C@@H](C)C(N)=O)NC1=O)C(=O)CCSC[C@H](NC(=O)[C@H](C)N)C(=O)N[C@@H](CC(N)=O)C(=O)N[C@@H](CC(C)C)C(=O)N[C@@H](CCC(N)=O)C(=O)N[C@@H](C)C(=O)N1CCC[C@H]1C(=O)N2
notes: scaffold TATA
B9: BCY19707 (peptide)
peptide: ACNLQAPCMLTGK[Nva(3-Et)]CA-NH2
modifications: linker 2-8-15 via TATA; N-terminus assumed
SMILES: CCC(CC)[C@@H]1NC(=O)[C@H](CCCCN)NC(=O)CNC(=O)[C@H]([C@@H](C)O)NC(=O)[C@H](CC(C)C)NC(=O)[C@H](CCSC)NC(=O)[C@@H]2CSCCC(=O)N3CN(CN(C3)C(=O)CCSC[C@@H](C(=O)N[C@@H](C)C(N)=O)NC1=O)C(=O)CCSC[C@H](NC(=O)[C@H](C)N)C(=O)N[C@@H](CC(N)=O)C(=O)N[C@@H](CC(C)C)C(=O)N[C@@H](CCC(N)=O)C(=O)N[C@@H](C)C(=O)N1CCC[C@H]1C(=O)N2
notes: scaffold TATA
B10: BCY19735 (peptide)
peptide: ACDLTTHNCQWG[aIle]CA-NH2
modifications: linker 2-9-14 via TATA
notes: scaffold TATA
B11: BCY19723 (peptide)
peptide: ACDLTTHNCQ[Trp(7-Me)]GICA-NH2
modifications: linker 2-9-14 via TATA; N-terminus assumed
SMILES: CC[C@H](C)[C@@H]1NC(=O)CNC(=O)[C@H](Cc2c[nH]c3c(C)cccc23)NC(=O)[C@H](CCC(N)=O)NC(=O)[C@@H]2CSCCC(=O)N3CN(CN(C3)C(=O)CCSC[C@@H](C(=O)N[C@@H](C)C(N)=O)NC1=O)C(=O)CCSC[C@H](NC(=O)[C@H](C)N)C(=O)N[C@@H](CC(=O)O)C(=O)N[C@@H](CC(C)C)C(=O)N[C@@H]([C@@H](C)O)C(=O)N[C@@H]([C@@H](C)O)C(=O)N[C@@H](Cc1c[nH]cn1)C(=O)N[C@@H](CC(N)=O)C(=O)N2
notes: scaffold TATA
B12: BCY19732 (peptide)
peptide: ACDLTT[Ala(2-furyl)]NCQWGICA-NH2
modifications: linker 2-9-14 via TATA; N-terminus assumed
SMILES: CC[C@H](C)[C@@H]1NC(=O)CNC(=O)[C@H](Cc2c[nH]c3ccccc23)NC(=O)[C@H](CCC(N)=O)NC(=O)[C@@H]2CSCCC(=O)N3CN(CN(C3)C(=O)CCSC[C@@H](C(=O)N[C@@H](C)C(N)=O)NC1=O)C(=O)CCSC[C@H](NC(=O)[C@H](C)N)C(=O)N[C@@H](CC(=O)O)C(=O)N[C@@H](CC(C)C)C(=O)N[C@@H]([C@@H](C)O)C(=O)N[C@@H]([C@@H](C)O)C(=O)N[C@@H](Cc1ccco1)C(=O)N[C@@H](CC(N)=O)C(=O)N2
notes: scaffold TATA
B13: BCY19725 (peptide)
peptide: ACDLTTHNCQ[Trp(5-F)]GICA-NH2
modifications: linker 2-9-14 via TATA
notes: scaffold TATA
B14: BCY19703 (peptide)
peptide: ACNLQAPCM[Nle]TGKVCA-NH2
modifications: linker 2-8-15 via TATA
notes: scaffold TATA
B15: BCY19710 (peptide)
peptide: ACNLQA[Nva]CMLTGKVCA-NH2
modifications: linker 2-8-15 via TATA; N-terminus assumed
SMILES: CCC[C@@H]1NC(=O)[C@H](C)NC(=O)[C@H](CCC(N)=O)NC(=O)[C@H](CC(C)C)NC(=O)[C@H](CC(N)=O)NC(=O)[C@@H](NC(=O)[C@H](C)N)CSCCC(=O)N2CN3CN(C2)C(=O)CCSC[C@@H](C(=O)N[C@@H](C)C(N)=O)NC(=O)[C@H](C(C)C)NC(=O)[C@H](CCCCN)NC(=O)CNC(=O)[C@H]([C@@H](C)O)NC(=O)[C@H](CC(C)C)NC(=O)[C@H](CCSC)NC(=O)[C@H](CSCCC3=O)NC1=O
notes: scaffold TATA
B16: BCY19704 (peptide)
peptide: ACNLQAPCM[Nva]TGKVCA-NH2
modifications: linker 2-8-15 via TATA; N-terminus assumed
SMILES: CCC[C@@H]1NC(=O)[C@H](CCSC)NC(=O)[C@@H]2CSCCC(=O)N3CN(CN(C3)C(=O)CCSC[C@@H](C(=O)N[C@@H](C)C(N)=O)NC(=O)[C@H](C(C)C)NC(=O)[C@H](CCCCN)NC(=O)CNC(=O)[C@H]([C@@H](C)O)NC1=O)C(=O)CCSC[C@H](NC(=O)[C@H](C)N)C(=O)N[C@@H](CC(N)=O)C(=O)N[C@@H](CC(C)C)C(=O)N[C@@H](CCC(N)=O)C(=O)N[C@@H](C)C(=O)N1CCC[C@H]1C(=O)N2
notes: scaffold TATA
B17: BCY19734 (peptide)
peptide: ACDLTTHNCQWG[Nle]CA-NH2
modifications: linker 2-9-14 via TATA; N-terminus assumed
SMILES: CCCC[C@@H]1NC(=O)CNC(=O)[C@H](Cc2c[nH]c3ccccc23)NC(=O)[C@H](CCC(N)=O)NC(=O)[C@@H]2CSCCC(=O)N3CN(CN(C3)C(=O)CCSC[C@@H](C(=O)N[C@@H](C)C(N)=O)NC1=O)C(=O)CCSC[C@H](NC(=O)[C@H](C)N)C(=O)N[C@@H](CC(=O)O)C(=O)N[C@@H](CC(C)C)C(=O)N[C@@H]([C@@H](C)O)C(=O)N[C@@H]([C@@H](C)O)C(=O)N[C@@H](Cc1c[nH]cn1)C(=O)N[C@@H](CC(N)=O)C(=O)N2
notes: scaffold TATA
B18: BCY19697 (peptide)
peptide: [Dap]CNLQAPCMLTGKVCA-NH2
modifications: linker 2-8-15 via TATA; N-terminus assumed
SMILES: CSCC[C@@H]1NC(=O)[C@@H]2CSCCC(=O)N3CN(CN(C3)C(=O)CCSC[C@H](NC(=O)[C@@H](N)CN)C(=O)N[C@@H](CC(N)=O)C(=O)N[C@@H](CC(C)C)C(=O)N[C@@H](CCC(N)=O)C(=O)N[C@@H](C)C(=O)N3CCC[C@H]3C(=O)N2)C(=O)CCSC[C@@H](C(=O)N[C@@H](C)C(N)=O)NC(=O)[C@H](C(C)C)NC(=O)[C@H](CCCCN)NC(=O)CNC(=O)[C@H]([C@@H](C)O)NC(=O)[C@H](CC(C)C)NC1=O
notes: scaffold TATA
B19: BCY19724 (peptide)
peptide: ACDLTTHNCQ[Trp(6-F)]GICA-NH2
modifications: linker 2-9-14 via TATA
notes: scaffold TATA

Numbered stars: 1 amine (or outer) side, 2 acyl side, 3 side chain; on linkers, the order of the positions; unused ones are H or OH. Bridge positions count the residues as written; N and C are the ends. Square brackets hold non-standard residues; d marks the D form. Ends that are not written are not given here. * marks the point of attachment. TATA = O=C(CC[*:1])N1CN(C(=O)CC[*:2])CN(C(=O)CC[*:3])C1; Trp(5-F) = N[C@@H](Cc1c[nH]c2ccc(F)cc12)C(=O)O; Trp(6-F) = N[C@@H](Cc1c[nH]c2cc(F)ccc12)C(=O)O; Trp(6-Me) = Cc1ccc2c(C[C@H](N)C(=O)O)c[nH]c2c1; Trp(7-Me) = Cc1cccc2c(C[C@H](N)C(=O)O)c[nH]c12; Trp(2-Me) = Cc1[nH]c2ccccc2c1C[C@H](N)C(=O)O; Ala(2-furyl) = N[C@@H](Cc1ccco1)C(=O)O; Nva(3-Et) = CCC(CC)[C@H](N)C(=O)O; aIle = CC[C@@H](C)[C@H](N)C(=O)O; Cba = N[C@@H](CC1CCC1)C(=O)O; Pip = O=C(O)[C@@H]1CCCCN1; Nle = CCCC[C@H](N)C(=O)O; Pent4ynoyl = C#CCCC(=O)*; Nva = CCC[C@H](N)C(=O)O; Dap = NC[C@H](N)C(=O)O; Aib = CC(C)(N)C(=O)O; GABA = NCCCC(=O)O

This is an account of results in patent US20240108738A1 (Bicycle, published 2024).

For this assay, the target named is T1, Human NKp46 Fc tag (Acro Biosystems, NC1-H5257) (human, UniProt O76036 22-255).
T1 construct: bought; also called Fc-tagged human NKp46
T1 sequence (O76036 22-255 limits assumed): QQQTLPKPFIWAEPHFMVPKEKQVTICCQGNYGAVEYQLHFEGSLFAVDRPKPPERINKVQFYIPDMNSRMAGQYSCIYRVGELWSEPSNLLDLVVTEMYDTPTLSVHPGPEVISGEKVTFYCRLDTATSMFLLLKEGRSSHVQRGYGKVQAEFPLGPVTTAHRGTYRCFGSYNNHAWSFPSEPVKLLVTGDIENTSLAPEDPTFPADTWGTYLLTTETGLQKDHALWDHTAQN
The assay can be described thus: SPR Method 1 and/or 2. The essentials:
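Fc-tagged human NKp46 captured on anti-human IgG surface (500–1000 RU); compounds run in PBS-P+ with 2% DMSO at 25 °C, 50 μL/min, 60 s association, 400 s dissociation. Double-referenced, DMSO-corrected; KD from steady-state 1:1 fit, kinetic constants from kinetic 1:1 fit where appropriate.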
For orientation: Kd means the constant that tells how readily two partners part at equilibrium. A higher Kd goes with a looser complex. B1: binding was put at a Kd of 3.5 nM.
Consider B2, for which the Kd was 2610 nM.
The same measure for B3: 354 nM.
Molecule B4 gave a Kd of 4030 nM.
The same measure for B5: 598 nM; for B6: 1460 nM.
The figure for B7 is 374 nM.
The same measure for B8: 1200 nM; for B9: 1050 nM; for B10: 460 nM.
Consider B11, for which binding was characterised by a dissociation constant (Kd) of 2270 nM.
The figure for B12 is 964 nM; for B13 it is 457 nM.
In the case of B14, the Kd was 1690 nM.
On to B15, for which the Kd worked out at 2360 nM.
Molecule B16 registered a Kd of 1620 nM.
B17: the Kd was determined as 611 nM.
The same measure for B18: 3730 nM.
The figure for B19 is 1390 nM.
